Like-named read-outs stand apart in the source and are kept apart here. Square brackets hold non-standard residues; d marks the D form. Ends that are not written are not given here. LTF = trifluoroleucine
Tests used:
[1] = ATR-FTIR peak deconvolution of secondary structure; format: physicochemical
Experimental: Attenuated Total Reflectance-Fourier Transform Infrared Spectroscopy. Secondary structure of protein fiber variants was confirmed using attenuated total reflectance-Fourier transform infrared (ATR-FTIR) spectroscopy using the Nicolet 6700 Fourier Transform Infrared Spectrometer equipped with a diamond ATR accessory and a mercury cadmium telluride (MCT)-A detector. Spectra were collected for 5 μL of 500 μM protein from 4000-400 cm^−1 with 0.5 cm^−1 increments at room temperature (RT). For CCM bound protein, protein was bound at a final concentration of 500 μM and saturated with CCM as determined by fluorescent spectroscopic drug binding with a final 1% v/v DMSO. Sample spectra were normalized using buffer background and analyzed from 1700-1600 cm^−1 corresponding to the amide I region. Peaks were deconvoluted using Gaussian functions in PeakFit software until the goodness of fit reached r^2≥0.99. Peaks were associated with secondary structure were determined by methods known in the art.
(§1) Attenuated Total Reflectance-Fourier Transform Infrared Spectroscopy. Secondary structure of Q2 protein was confirmed using attenuated total reflectance-Fourier transform infrared (ATR-FTIR) spectroscopy using the Nicolet 6700 Fourier Transform Infrared Spectrometer equipped with a diamond ATR accessory and a mercury cadmium telluride (MCT)-A detector. Spectra were collected for 5 μL of 2 mM protein from 4000-400 cm^−1 with 0.5 cm^−1 increments. Sample spectra were normalized using buffer background and analyzed from 1700-1600 cm^−1 corresponding to the amide I region. Peaks were deconvoluted using Gaussian functions in PeakFit software until the goodness of fit reached r^2>0.99.
as §1, with “of Q2LTF and QLTF” for “of Q2”, “using a” for “using the”, “of 1” for “of 2”, “with 4.0” for “with 0.5”, “reached r^2≥0.99.” for “reached r^2>0.99.”
Attenuated Total Reflectance-Fourier Transform Infrared Spectroscopy. Secondary structure before (solution) and after gelation (gel) was also assessed by peak deconvolution of attenuated total reflectance-Fourier transform infrared (ATR-FTIR) spectra. ATR-FTIR measurements were performed using a Nicolet 6700 Fourier Transform Infrared Spectrometer equipped with a mercury cadmium telluride (MCT)-A detector. Spectra were collected for 5 μL samples of protein at 2 mM from 4000-400 cm^−1 with a 4.0 cm^−1 resolution, normalized, and buffer-subtracted prior to analysis from 1700-1600 cm^−1, corresponding to the amide I region. ATR-FTIR measurements were performed immediately after concentration to 2 mM for solution measurements and after. Peaks were deconvoluted using Gaussian functions in PeakFit software until the goodness of fit reached r^2≥0.99.

[2] = previous studies, cited from earlier work
TEM of protein fibers = format: physicochemical; conditions: fibers, 50 mM NaH2PO4 pH 4.0
Experimental: (§2) Transmission Electron Microscopy. Transmission electron microscopy (TEM) images were taken with a FEI Talos L120C transmission electron microscope. Protein fiber samples were diluted to 50 μM and 3 μL was spotted on Formvar/carbon-coated copper grids followed by 5 μL wash with water, and 3 μL staining with 1% v/v uranyl acetate solution each with incubation times of 1 min at RT. Fibrils were sized in ImageJ software (Version 1.52q).
as §2, with “Samples” for “Protein fiber samples”, “by a” for “by”, “min. Between steps, filter paper was used to wick the grids. Following imaging, fibrils” for “min at RT. Fibrils”

[3] = CD temperature scans (melting temperature); format: physicochemical
Experimental: Circular Dichroism Spectroscopy. Secondary structure was first assessed using the Jasco J-815 CD spectrometer with a PTC-423S single position Peltier temperature control system. Wavelength scans were performed from 190 to 250 nm using 15 μM samples at 1 nm step sizes at 25° C. Temperature scans were performed at α-helical minimum 222 nm from 20 to 85° C. The mean residue ellipticity (MRE) was calculated as described previously. MRE at 222 nm and 208 nm and their ratios were used to assess relative helicity.
Circular Dichroism Spectroscopy. The secondary structure of Q2LTF and QLTF was assessed using a Jasco J-815 circular dischroism (CD) spectrometer with a PTC-423S single position Peltier temperature control system. Wavelength scans were performed from 195 to 250 nm at 1 nm step sizes by diluting the protein into water (at approximately 10 μM) in order to minimize the effects of sodium chloride. […] The mean residue ellipticity (MRE) was calculated as described.

[4] = Confocal microscopy of CCM-bound fibers; format: physicochemical; conditions: 50 μM protein saturated with CCM, pH 4.0
Experimental: Confocal Microscopy. Protein bound to CCM was studied by measuring 50 μM protein samples saturated with CCM as determined by fluorescent spectroscopic drug binding with a final 1% v/v DMSO (or 2×Kd). 10 μL of protein was added to a micro slide and a 22×22 mm #1 microscope cover glass. Slides were inverted and imaged using a Leica TCS SP8 X Laser Confocal Microscope using a dry 10× objective at RT. CCM was excited using a 460 nm line of the laser, and images were taken using a 470 to 550 nm detection window.
Confocal Microscopy. Q2LTF was diluted to 50 μM and saturated with 40 μM of curcumin (solubilized in DMSO) as determined by the binding affinity in drug-binding experiments. […] 5 μL of sample was deposited onto a microslide and covered with a 22×22 mm #1 microscope cover glass. Images were taken with a Leica TCS SP8 X laser confocal microscope using a dry 10× objective at RT. Samples were excited at 460 nm and images were taken with a 470-550 nm detection window.

Row | Molecule | aggregated strands ([1]; fluorinated constructs, Tris buffer) [% composition] | melting temperature [2] [°C] | aggregated strands ([1]; native) [%] | antiparallel β-sheet/aggregated strands ([1]; native) [%] | aggregated strands ([1]; w/CCM) [%] | antiparallel β-sheet/aggregated strands ([1]; w/CCM) [%] | average protein fiber diameter (TEM) (TEM of protein fibers) [nm] | melting temperature ([3]; CCM-bound, pH 4.0) [°C] | melting temperature ([3]; native, 50 mM NaH2PO4 pH 4.0) [°C] | fiber diameter after CCM binding (confocal) [4] [μm] | melting temperature ([2]; Na2HPO4 pH 8.0)
1 | QLTF: Q with leucines replaced by trifluoroleucine, SEQ ID NO: 19 (MRGSHHHHHHGSIEGRVKEITF[LTF]KNTAPQM[LTF]RE[LTF]QETNAA[LTF]QDVRE[LTF][LTF]RQQSK[LTF]; ends and bridges not checked) [reference compound] | 17.4 | 52 | – | – | – | – | – | – | – | – | –
2 | C2: C variant with redistributed electrostatic patches, SEQ ID NO: 22 (MRGSHHHHHHGSIEGRMQLAKHMLKELQKTNALQSVRTLLQQQVEEITQLKETVENSDSS) [Protein C2] | – | – | 5.3 | 15.0 | 9.0 | 4.8 | 73±18 | 69.6±7.8 | 49.4±1.1 | 6.89±2.54 | –
3 | C: cartilage oligomeric matrix protein coiled-coil with His tag, SEQ ID NO: 21 (protein, His tag) MRGSHHHHHHGSIEGRAPQMLRELQETNAALQDVRELLRQQVKEITFLKNTVMESDASGKL | – | – | 10.0 | 11.5 | 20.8 | 0.0 | 47±22 | 51.8±4.3 | 56.0±2.6 | 4.91±1.49 | 41-42 °C
